System: fibrinogen

Question: human thrombin was tested. Which “SDS-PAGE analysis of hydrolysis of fibrinogen (Aα-strand)” value did it give?
Answer: The value was “has a similar strength to human thrombin”.
